Target: T1, Alexa-488 tagged Hsp60α (Sulfolobus acidocaldarius, UniProt Q9V2T5 1-558, Alexa-488 label (site not stated))
T1 sequence (looked up): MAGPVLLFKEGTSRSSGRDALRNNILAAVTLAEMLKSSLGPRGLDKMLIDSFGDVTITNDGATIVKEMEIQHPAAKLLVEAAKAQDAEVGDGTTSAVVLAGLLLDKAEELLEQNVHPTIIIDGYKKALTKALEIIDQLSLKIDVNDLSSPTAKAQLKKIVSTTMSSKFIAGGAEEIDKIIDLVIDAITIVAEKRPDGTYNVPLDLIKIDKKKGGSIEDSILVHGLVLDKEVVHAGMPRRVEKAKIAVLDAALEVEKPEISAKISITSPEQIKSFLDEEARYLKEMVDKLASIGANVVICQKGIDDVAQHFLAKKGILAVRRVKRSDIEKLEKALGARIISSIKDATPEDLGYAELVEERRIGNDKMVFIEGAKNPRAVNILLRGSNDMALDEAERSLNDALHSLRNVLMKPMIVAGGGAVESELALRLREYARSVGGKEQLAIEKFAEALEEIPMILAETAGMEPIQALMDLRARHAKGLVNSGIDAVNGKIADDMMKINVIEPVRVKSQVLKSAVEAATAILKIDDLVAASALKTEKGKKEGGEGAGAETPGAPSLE
Assay: FRET or BRET

B1: Alexa-532 tagged Hsp60β (natural protein, Sulfolobus acidocaldarius, UniProt Q9V2T4 1-553, looked up)
chain: MSATATVATTPEGIPVIILKEGSSRTYGKEALRINIAAVKAVEEALKTTYGPRGMDKMLVDSLGDITITNDGATILDKMDLQHPAAKLLVQIAKGQDEETADGTKTAVIFSGELVKKAEELLYKEIHPTIIVSGYKKAEEMAIKTIEEISTKVSVNDTEILRKVALTSLSSKAVAGAREHLADIVVKAITQVAELRGDKWYVDLDNVQIVKKHGGSINDTQIVYGIIVDKEVVHPGMPKRVENAKIALLDASLEVEKPELDAEIRINDPTQMKKFLDEEENILKEKVDKIAQTGANVVICQKGIDEVAQHYLAKKGILAVRRAKKSDLEKLARATGGRVVSNIDELTSQDLGYATLVEERKIGEDKMVFIEGAKNPKAVSILIRGGLERVVDETERALRDALGTVADVVRDGRAIAGGGAVETEIAKRLRKYAPQVGGKEQLAIEAYANALESLVMILIENGGFDPIELLVKLRSAHENETNKWHGINVYTGQIQDMWSLGVIEPAVVKMNAIKAATEASTLILRIDDLISAGKKSEGKTGEKKESEKGKEED
modifications: Alexa-532 label (site not stated)
Q: How did the Kd turn out when B1 was run?
A: 167 ± 1.7 nM
